Numbering of substitutions follows the chain as printed.
T1: human TSLPR on Ba/F3-hTSLPR-hIL7Ra cells (human, UniProt Q9HC73 23-371)
T1 sequence (looked up): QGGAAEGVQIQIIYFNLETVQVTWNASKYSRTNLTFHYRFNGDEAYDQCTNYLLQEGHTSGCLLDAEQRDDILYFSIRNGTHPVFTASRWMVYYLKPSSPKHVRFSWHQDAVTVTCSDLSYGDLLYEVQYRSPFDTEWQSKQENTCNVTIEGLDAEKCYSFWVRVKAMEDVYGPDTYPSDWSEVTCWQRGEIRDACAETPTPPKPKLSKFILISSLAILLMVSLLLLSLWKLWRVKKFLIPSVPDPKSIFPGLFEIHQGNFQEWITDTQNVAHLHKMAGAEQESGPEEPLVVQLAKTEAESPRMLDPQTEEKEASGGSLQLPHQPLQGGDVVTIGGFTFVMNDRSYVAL

T2: hTSLPR-ECTO-His (human)
T2 chain: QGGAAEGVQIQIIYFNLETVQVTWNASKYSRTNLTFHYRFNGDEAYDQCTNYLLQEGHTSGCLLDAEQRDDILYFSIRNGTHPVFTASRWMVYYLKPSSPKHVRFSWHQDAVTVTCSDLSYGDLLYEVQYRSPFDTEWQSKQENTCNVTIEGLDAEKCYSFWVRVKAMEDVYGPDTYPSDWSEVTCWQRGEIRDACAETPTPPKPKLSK

B1: mouse antibody 4G8 (antibody, mouse IgG1, V domains shown)
VH: QVQLKQSGPGLVQPSQSLSITCTVSGFSLTIYGLHWVRQSPGKGLEWLGVIWRGGSTDYNAAFMSRLRITKDNSKSQVFFKMDSLQADDTAIYYCAKPYYDYDGNWYFDVWGAGTTVTVSS
VL: DIVMTQSQKFMSTSVGDRVSVTCKASQNVGTNVAWYQKKSGQSPKPLIYSASSHCSEVPDRFTGSGSGTDFTLTINNVQSEDLAEYFCQQYNRYPLTFGTGTKLEVRR
notes: Mouse IgG1/kappa from hybridoma; also called m4G8; LB55.4G8.2A6
B2: mouse anti-human TSLPR antibody 70E8 (antibody, mouse IgG1, V domains shown)
VH: DVQLQESGPDLVKPSQSLSLTCTVTNYSITSGYSWPWIRQFPGNKLEWLGYIHSSGRTNYNPSLKSRISITRDTSKNQFFLQLNSVTPEDTATYYCARSQLGLVFFAYWGQGTLVTVSA
VL: DIVMTQSQKFMSTSVGDRVSVTCKASQSVGANVAWYQQIPGHSPKVLIYSASYRFSGVPDRFTGSGSGTDFTLTISNVQSEDLAEYFCQQYNSYPYTFGGGTKLEIRR
notes: Mouse IgG1/kappa from hybridoma; also called m70E8; LB55.70E8.1A8
B3: mouse antibody 49A5 (antibody, mouse IgG1, V domains shown)
VH: QVQLKQSGPGLVQPSQSLSITCTVSGFSLTTYGVHWVRQSPGKGLEWLGVIWRGGNTAYNPAFMSRLSITKDNSKSQVFFKMNSLQADDTAIYHCAKKSYYGYHAMGYWGQGTSVTVSS
VL: DIQMTQTTSSLSASLGDRVTINCRASQDISNYLNWYQQNPDGTVKLLIYYTSRLHSGVPSRFSGSGSGTDYSLTISNLEQEDIATYFCQQANTLPWTFGGGTKLEIKR
notes: Mouse IgG1/kappa from hybridoma; also called m49A5; LB55.49A5.2F9
B4: chimeric anti-human TSLPR 13H5 antibody (antibody, V domains shown)
VH: QVLLKQSGPSLVQPSQSLSITCTVSGFSLSRYGVHWVRQSPGKGLEWLGVIWRSGSTDYNAAFMSRLSITQDNSKSQVFFNMNSLQSDDSAIYYCAKKAFYVMDYWGQGTSVTVSS
VL: B3 VL with N22S, N31I, N39K, D70N, Y71F, S76T, Q80E, A91G
notes: also called chim 13H5; Chimeric 13H5; not shown: human IgG1 heavy chain constant region (CH1-hinge-CH2-CH3); human kappa light chain constant domain (CL domain)
B5: mouse antibody 54C11 (antibody, mouse IgG2a, V domains shown)
VH: QVQLQQSGPEVVRPGVSVKISCKGSGFTFTDYAIHWVRQSHAKSLEWIGIIRPSNGNTNCDQKFKDKATMTVDKSSSTAYLDLARLTSEDSAIYYCSRSRVWGGSLAYWGQGTLVTVSA
VL: DIVMTQSQKFMSTSVGDRVSVTCKASQNVGTNIAWYQQKPGQSPEALIYSASYRYSGVPDRFTGSGSGTDFTLTITNVQSEDLAEYFCQQYKSYPWTFGGGTKLEIKR
notes: Mouse IgG2a/kappa from hybridoma; also called m54C11; LB55.54C11.3G11
B6: mouse antibody 61C11 (antibody, mouse IgG2a, V domains shown)
VH: QAYLQQSGAELVRSGASVKMSCKASGYTFTSYNLHWIKLTPGQGLEWIGYIYPGLNGTLYNQKFRGKATLTADTSSSTAYMQISSLTSEDSAVYFCARSDYGKAWFAYWGRGTLVTVSA
VL: DILLTQSPAILSVSPGERVSFSCRASQSIATKIHWYQQRTDHSPRLLIQLGSESISGIPSRFSGSGSGTDFTFTINSVESEDIAVYYCQQSNRYPYTFGGGTKLEVKR
notes: Mouse IgG2a/kappa from hybridoma; also called m61C11; LB55.61C11.2B1
B7: rat anti-human TSLPR antibody 18B3 (antibody, V domains shown)
VH: EVQLVESGGGLVQPGRSLRLSCVASGFTFNNYWMTWVRQAPGKGLEWVASITDTSGRTYYPDSVKGRFTISRDHAKSTLYLQMNSLRPEDTATYYCTKTLGGIPRDWGQGVMVTVSS
VL: NIQLTQSPSLLSASVGDRVTLSCKGSQNINNYLAWYQQKLGEAPKLLIFKTNILQTGIPLRFSGSGSGTDYTLTISSLHCEDLATYYCYQFNNGFTFGPGTKLELKR
notes: Rat monoclonal antibody; also called r18B3; LB1.18B3
B8: mouse antibody 54A11 (antibody, mouse IgG2a, V domains shown)
VH: EVQLQQSGPELVKPRASVKISCKASGYSFTGYYIHWVKQSHVKSLEWIGRINPYNGATIYNPNFKDKASLTVDKSSSTAFMEVHSLTSEDSAVYYCARSYGYVNYFDYWGQGTTLTVSS
VL: EIVLTQSPATLSVTPGDSVSLSCRASQSISNNLHWYHQKSHESPRLLIKFGFQSISGIPSRFSGSGSGTDFTLSINSVETEDFGMYFCQQTNSWLTFGAGTKLELKR
notes: Mouse IgG2a/kappa from hybridoma; also called m54A11; LB55.54A11.3D6

How the values were obtained:
[1] = target: T1, human TSLPR on Ba/F3-hTSLPR-hIL7Ra cells; test: cell-based or functional assay
hTSLPR-ECTO-His = target: T2, hTSLPR-ECTO-His; test: ELISA, plate coated with TSLPR 50 ng/well, HRP goat anti-mouse detection
Procedure: (§1) The ELISA measures the EC50 of certain mouse anti-TSLPR antibodies generated according to Example 2 are reported on Table 4. The antibodies were purified from hybridoma supernatants, and his-hTSLPR or cTSLPR-Ig was used to determine binding affinity.
(§2) Coating of plates was performed as follows: TSLPR (50 ng per well) in PBS was incubated at 4° C. overnight. Plates were washed with 1 cycle (3 washes/cycle) on a Molecular Devices plate washer. Antibody was then titrated across a row of eight wells in the range of 3000 ng/mL to […] using serial 3-fold dilutions and incubated for 60 min. at 25° C. Plates were washed for 1 cycle, HRP-goat anti-mouse) (1:2,000 dilution) was added at 0.05 mL/well and incubated for 60 min at 25° C. Plates were washed for 1 cycles. ABTS substrate was added at 0.05 mL/well and incubated 10 min at 25 C. Plates read at) or A_{405 nm}. [0223]

cTSLPR-Ig [2] = target: T3, cTSLPR-Ig (cynomolgus monkey); test: as above
T3 construct: also called cyTSLP R-hIg P749; Mam-Trans[FlagPreProTrypsin]DELTA2_NHP[Ig]
Procedure: as §1, §2

[3] = target: cynomolgus TSLPR on Ba/F3-cTSLPR-cIL7Ra cells (cynomolgus monkey); test: cell-based or functional assay
cTSLPR-Ig [4] = target: T3, cTSLPR-Ig; test: SPR BIAcore T100, cyTSLPR-hIg amine-coupled on CM5, antibody as analyte, bivalent analyte model, n = 2
Procedure: The kinetic binding activities of the mouse anti human TSLPR antibody 13H5, chimeric anti-human TSLPR 13H5 antibody, rat anti-human TSLPR antibody 18B3, and mouse anti-human TSLPR antibody 70E8 against both human (hu) and cynomolgus monkey (cyno) TSLPR were measured by surface plasmon resonance using a BIAcore T100 system (BIAcore AB, Upsalla, Sweden). Approximately 70RUs of […] were immobilized via amine coupling chemistry onto a Sensor Chip CM5 (Research grade, BR-1006-68). HBS-EP buffer (BR-1006-69) was used as the running buffer with a flow rate of 30 μL/min. Antibodies at varying concentrations ranging from 0.01 to 600 nM were injected over the immobilized hu or cyno TSLP surfaces at a flow rate of 30 μL/min. Following each injection cycle the CM5 chip surface was regenerated using a series of solutions (10 mM Glycine pH 1.5 and 25 mM NaOH respectively) at a flow rate of 75 μL/min.
Background subtraction binding sensorgrams were used for analyzing the rate constant of association (ka) and dissociation (kd), and the equilibrium dissociation constant KD. The resulting data sets shown in Table 5 were fitted with a bivalent analyte model using the BlAevaluation software (version 1.0).

Binder | Avg IC50, Ba/F3-huTSLPR proliferation [1] | IC50 Assay I, Ba/F3-huTSLPR proliferation [1] | IC50 Assay II, Ba/F3-huTSLPR proliferation [1] | IC50 Assay III, Ba/F3-huTSLPR proliferation [1] | EC50 (hTSLPR-ECTO-His) | EC50 (cTSLPR-Ig [2]) | Avg IC50, Ba/F3-cyTSLPR proliferation [3] | IC50 Assay I, Ba/F3-cyTSLPR proliferation [3] | IC50 Assay II, Ba/F3-cyTSLPR proliferation [3] | IC50 Assay III, Ba/F3-cyTSLPR proliferation [3] | Kd (cTSLPR-Ig [4]) | koff (cTSLPR-Ig [4]) | kon (cTSLPR-Ig [4])
B1 | 0.262 µg/mL | 0.292 µg/mL | 0.202 µg/mL | 0.291 µg/mL | 0.0059 µg/mL | 0.081 µg/mL | – | – | – | – | – | – | –
B2 | 0.0446 µg/mL | 0.0442 µg/mL | 0.0489 µg/mL | 0.0407 µg/mL | – | 0.958 µg/mL | > 50 µg/mL | ~55 µg/mL | ~90 µg/mL | ~90 µg/mL | – | – | –
B3 | 0.127 µg/mL | 0.143 µg/mL | 0.108 µg/mL | 0.131 µg/mL | 0.0417 µg/mL | 0.0059 µg/mL | 0.231 µg/mL | 0.202 µg/mL | 0.246 µg/mL | 0.246 µg/mL | – | – | –
B4 | – | – | – | – | – | – | – | – | – | – | 0.374 nM | 0.000172 s⁻¹ | 460000 M⁻¹ s⁻¹
B5 | 0.0203 µg/mL | 0.0195 µg/mL | 0.0188 µg/mL | 0.0227 µg/mL | 0.0059 µg/mL | 0.153 µg/mL | – | – | – | – | – | – | –
B6 | 0.162 µg/mL | 0.174 µg/mL | 0.139 µg/mL | 0.172 µg/mL | 0.026 µg/mL | 0.26 µg/mL | > 10 µg/mL | ~13 µg/mL | ~18 µg/mL | ~15 µg/mL | – | – | –
B7 | 0.304 µg/mL | 0.318 µg/mL | 0.259 µg/mL | 0.335 µg/mL | – | – | – | – | – | – | 10.1 nM | 0.0078 s⁻¹ | 770000 M⁻¹ s⁻¹
B8 | 0.178 µg/mL | 0.211 µg/mL | 0.132 µg/mL | 0.191 µg/mL | 0.0458 µg/mL | 0.0075 µg/mL | 0.138 µg/mL | 0.125 µg/mL | 0.153 µg/mL | 0.137 µg/mL | – | – | –
